Our source for the binding result, Kd and binding signal values is PMC5180085.

Data set [1] addresses T1, Ku70;Ku80 (human;human, UniProt P12956;P13010 1-609;1-732, |). Kind of data set: mwPIFE; internal Cy3, PIFE falls with distance from free end; mwPIFE, room temp, 30 min: BamHI 10 mM Tris-HCl pH 8, 100 mM KCl, 0.02% Triton X-100, 0.1 mg/ml BSA, 5 mM EDTA/MgCl2/CaCl2; Ku 35 mM Tris-Cl pH 7.9, 5.5% glycerol, 150 mM KCl, 1 mM EDTA, 0.1 mM DTT, 1.5 mM imidazole; XPF/ERCC1 10 mM Tris-Cl pH 8, 10 mM NaCl. FA: 10 mM Tris-HCl pH 8, 10 mM NaCl, 10% glycerol, 1 mM TCEP, 50 nM DNA, 25 C. Particulars: protein: recombinant;recombinant; tags: ;; copies: 1;1; label: 5' biotin-TEG strand 1; 3' biotin-TEG strand 2; iCy3; blunt; one end free.

The target in data set [2] is T2, BamHI restriction endonuclease (UniProt P23940 1-213).
T2 sequence: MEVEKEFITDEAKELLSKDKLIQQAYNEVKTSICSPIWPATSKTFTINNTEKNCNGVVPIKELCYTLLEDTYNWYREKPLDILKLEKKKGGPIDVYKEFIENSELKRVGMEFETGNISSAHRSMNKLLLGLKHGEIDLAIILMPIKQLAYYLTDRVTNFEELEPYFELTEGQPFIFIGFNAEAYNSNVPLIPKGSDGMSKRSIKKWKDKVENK
As to the kind of experiment: competition; Ca2+; mwPIFE, 1-10x excess; mwPIFE, room temp, 30 min: BamHI 10 mM Tris-HCl pH 8, 100 mM KCl, 0.02% Triton X-100, 0.1 mg/ml BSA, 5 mM EDTA/MgCl2/CaCl2; Ku 35 mM Tris-Cl pH 7.9, 5.5% glycerol, 150 mM KCl, 1 mM EDTA, 0.1 mM DTT, 1.5 mM imidazole; XPF/ERCC1 10 mM Tris-Cl pH 8, 10 mM NaCl. FA: 10 mM Tris-HCl pH 8, 10 mM NaCl, 10% glycerol, 1 mM TCEP, 50 nM DNA, 25 C. Particulars: protein: commercial; chain copies: 2; blunt.

Data set [3] addresses T3, XPF (truncated);ERCC1 (truncated) (human;human, UniProt Q92889;P07992 640-916;93-297, |).
T3 sequence 1: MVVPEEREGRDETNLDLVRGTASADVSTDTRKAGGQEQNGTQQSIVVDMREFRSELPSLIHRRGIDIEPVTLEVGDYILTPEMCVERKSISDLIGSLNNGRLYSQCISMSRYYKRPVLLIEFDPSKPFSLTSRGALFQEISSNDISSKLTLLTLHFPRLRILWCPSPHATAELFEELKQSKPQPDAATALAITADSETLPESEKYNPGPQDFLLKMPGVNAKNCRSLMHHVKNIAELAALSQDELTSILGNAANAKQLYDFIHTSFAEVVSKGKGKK
T3 sequence 2: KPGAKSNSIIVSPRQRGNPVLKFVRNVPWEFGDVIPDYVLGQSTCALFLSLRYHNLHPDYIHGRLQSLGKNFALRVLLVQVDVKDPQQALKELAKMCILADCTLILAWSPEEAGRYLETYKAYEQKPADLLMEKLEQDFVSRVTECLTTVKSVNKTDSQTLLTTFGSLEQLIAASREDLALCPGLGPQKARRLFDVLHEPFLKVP
As to the kind of experiment: fluorescence anisotropy; mwPIFE, room temp, 30 min: BamHI 10 mM Tris-HCl pH 8, 100 mM KCl, 0.02% Triton X-100, 0.1 mg/ml BSA, 5 mM EDTA/MgCl2/CaCl2; Ku 35 mM Tris-Cl pH 7.9, 5.5% glycerol, 150 mM KCl, 1 mM EDTA, 0.1 mM DTT, 1.5 mM imidazole; XPF/ERCC1 10 mM Tris-Cl pH 8, 10 mM NaCl. FA: 10 mM Tris-HCl pH 8, 10 mM NaCl, 10% glycerol, 1 mM TCEP, 50 nM DNA, 25 C. Particulars: protein: recombinant;recombinant, tags: none;GST-His6 N-terminal, removed by TEV, copies: 1;1.

In data set [4] the target is T2, BamHI restriction endonuclease. Kind of data set: mwPIFE; 5 mM Ca2+; mwPIFE, room temp, 30 min: BamHI 10 mM Tris-HCl pH 8, 100 mM KCl, 0.02% Triton X-100, 0.1 mg/ml BSA, 5 mM EDTA/MgCl2/CaCl2; Ku 35 mM Tris-Cl pH 7.9, 5.5% glycerol, 150 mM KCl, 1 mM EDTA, 0.1 mM DTT, 1.5 mM imidazole; XPF/ERCC1 10 mM Tris-Cl pH 8, 10 mM NaCl. FA: 10 mM Tris-HCl pH 8, 10 mM NaCl, 10% glycerol, 1 mM TCEP, 50 nM DNA, 25 C. Particulars: protein: commercial; chain copies: 2; label: 5' biotin strand 1; 5' Cy3 strand 2; blunt.

For data set [5], the target named is T1, Ku70;Ku80. As to the kind of experiment: mwPIFE; mwPIFE, room temp, 30 min: BamHI 10 mM Tris-HCl pH 8, 100 mM KCl, 0.02% Triton X-100, 0.1 mg/ml BSA, 5 mM EDTA/MgCl2/CaCl2; Ku 35 mM Tris-Cl pH 7.9, 5.5% glycerol, 150 mM KCl, 1 mM EDTA, 0.1 mM DTT, 1.5 mM imidazole; XPF/ERCC1 10 mM Tris-Cl pH 8, 10 mM NaCl. FA: 10 mM Tris-HCl pH 8, 10 mM NaCl, 10% glycerol, 1 mM TCEP, 50 nM DNA, 25 C. Particulars: protein: recombinant;recombinant, tags: ;, copies: 1;1, label: 5' biotin strand 1, blunt.

For data set [6], the target named is T1, Ku70;Ku80. Kind of data set: mwPIFE; internal Cy3, lower PIFE than terminal; mwPIFE, room temp, 30 min: BamHI 10 mM Tris-HCl pH 8, 100 mM KCl, 0.02% Triton X-100, 0.1 mg/ml BSA, 5 mM EDTA/MgCl2/CaCl2; Ku 35 mM Tris-Cl pH 7.9, 5.5% glycerol, 150 mM KCl, 1 mM EDTA, 0.1 mM DTT, 1.5 mM imidazole; XPF/ERCC1 10 mM Tris-Cl pH 8, 10 mM NaCl. FA: 10 mM Tris-HCl pH 8, 10 mM NaCl, 10% glycerol, 1 mM TCEP, 50 nM DNA, 25 C. Particulars: protein: recombinant;recombinant; tags: ;; copies: 1;1; label: 5' biotin-TEG strand 1; 3' biotin-TEG strand 2; iCy3; blunt; one end free.

Data set [7] has as its target T1, Ku70;Ku80. As to the kind of experiment: mwPIFE; mwPIFE, room temp, 30 min: BamHI 10 mM Tris-HCl pH 8, 100 mM KCl, 0.02% Triton X-100, 0.1 mg/ml BSA, 5 mM EDTA/MgCl2/CaCl2; Ku 35 mM Tris-Cl pH 7.9, 5.5% glycerol, 150 mM KCl, 1 mM EDTA, 0.1 mM DTT, 1.5 mM imidazole; XPF/ERCC1 10 mM Tris-Cl pH 8, 10 mM NaCl. FA: 10 mM Tris-HCl pH 8, 10 mM NaCl, 10% glycerol, 1 mM TCEP, 50 nM DNA, 25 C. Particulars: protein: recombinant;recombinant; tags: ;; copies: 1;1; label: 5' biotin strand 1; 5' Cy3 strand 2; blunt.

T1 sequence (P12956 whole entry, chain 1 of 2): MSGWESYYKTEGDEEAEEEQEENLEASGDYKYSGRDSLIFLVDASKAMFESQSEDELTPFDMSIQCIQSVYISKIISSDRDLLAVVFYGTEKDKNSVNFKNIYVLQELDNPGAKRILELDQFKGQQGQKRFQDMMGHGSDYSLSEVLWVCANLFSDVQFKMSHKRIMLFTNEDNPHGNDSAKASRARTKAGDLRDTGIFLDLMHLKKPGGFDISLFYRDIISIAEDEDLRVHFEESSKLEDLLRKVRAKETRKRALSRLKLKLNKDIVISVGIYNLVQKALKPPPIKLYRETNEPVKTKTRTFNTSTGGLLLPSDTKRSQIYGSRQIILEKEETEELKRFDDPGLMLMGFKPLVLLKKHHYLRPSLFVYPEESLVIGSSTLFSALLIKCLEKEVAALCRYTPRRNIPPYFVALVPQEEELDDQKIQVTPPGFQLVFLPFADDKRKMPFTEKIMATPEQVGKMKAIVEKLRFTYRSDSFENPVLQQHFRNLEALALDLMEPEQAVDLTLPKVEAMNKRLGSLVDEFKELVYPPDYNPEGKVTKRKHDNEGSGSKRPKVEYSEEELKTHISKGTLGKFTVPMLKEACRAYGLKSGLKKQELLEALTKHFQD
T1 sequence (P13010 whole entry, chain 2 of 2): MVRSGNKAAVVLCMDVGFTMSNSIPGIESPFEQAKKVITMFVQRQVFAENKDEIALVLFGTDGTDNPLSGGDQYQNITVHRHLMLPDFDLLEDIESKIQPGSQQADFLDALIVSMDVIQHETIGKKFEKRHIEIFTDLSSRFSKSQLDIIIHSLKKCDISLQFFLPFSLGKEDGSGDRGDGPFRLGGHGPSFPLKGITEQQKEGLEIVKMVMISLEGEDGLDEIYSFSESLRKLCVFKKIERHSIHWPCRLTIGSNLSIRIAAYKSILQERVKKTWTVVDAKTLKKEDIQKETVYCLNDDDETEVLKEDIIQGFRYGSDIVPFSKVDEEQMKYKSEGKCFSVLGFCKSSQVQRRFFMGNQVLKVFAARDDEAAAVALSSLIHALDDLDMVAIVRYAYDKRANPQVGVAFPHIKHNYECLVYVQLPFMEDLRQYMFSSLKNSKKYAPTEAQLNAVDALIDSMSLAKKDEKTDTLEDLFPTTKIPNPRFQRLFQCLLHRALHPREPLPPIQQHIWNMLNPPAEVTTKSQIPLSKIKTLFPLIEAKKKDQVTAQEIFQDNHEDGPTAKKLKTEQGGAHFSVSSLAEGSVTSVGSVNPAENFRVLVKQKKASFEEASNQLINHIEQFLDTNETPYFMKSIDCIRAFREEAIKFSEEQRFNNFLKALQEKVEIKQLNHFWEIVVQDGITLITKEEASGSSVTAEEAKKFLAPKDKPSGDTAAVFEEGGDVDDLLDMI

B1: BtnT_15_Cy3_60 (internal Cy3 60 nt from free end) (dsDNA)
DNA 1: TTGCATCCTTCACAACGACCACCTAGATAGAGCCAAGCAGTTTACGTACCGTCATTCCCTTCCACGTCATCGAGC
DNA 2: GCTCGATGACGTGGAAGGGAATGACGGTACGTAAACTGCTTGGCTCTATCTAGGTGGTCGTTGTGAAGGATGCAA
modifications: internal Cy3 after nt 15 of strand 1
Take B1: in the data set with Ku70;Ku80 [1], the binding result was “binds”.

B2: scr competitor (no BamHI site) (dsDNA)
DNA 1: CCGTCCAACAGCGAGGCTGATTAAAGAATTCG
DNA 2: CGAATTCTTTAATCAGCCTCGCTGTTGGACGG
Regarding B2, in data set [2], the binding result is “no binding”.

B3: Y (splayed arm) (structured_DNA)
DNA 1: CAGCGCTCGGTTTTTTTTTT
DNA 2: TTTTTTTTTTCCGAGCGCTG
Consider B3, for which, in data set [3] (fork 1:2, 10 bp duplex with two T10 arms), the Kd was determined as 0.81 ± 0.1 µM.

B4: B-GC* competitor (one base changed in BamHI site) (dsDNA)
DNA 1: CACAACGCCTGATCCGGCCTAGAT
DNA 2: ATCTAGGCCGGATCAGGCGTTGTG
Consider B4, for which the binding result in data set [2] is reported as “no binding”.

B5: C_f/C_r (no BamHI site) (dsDNA)
DNA 1: CACAACGACCACCTAGATAGAGCCAAGCAGTTTACGTACCGTCATTCCCTTCCACGTCATCGAGCTACCGTCGTC
DNA 2: GACGACGGTAGCTCGATGACGTGGAAGGGAATGACGGTACGTAAACTGCTTGGCTCTATCTAGGTGGTCGTTGTG
Regarding B5, the binding result in data set [4] was “no binding”.

B6: Btn_13_f/Cy3_13_r (dsDNA)
DNA 1: CTAGATAGAGCCA
DNA 2: TGGCTCTATCTAG
Take B6: in the data set with Ku70;Ku80 [5], the binding signal is roughly 50 % PIFE.

B7: 10ds (dsDNA)
DNA 1: CAGCGCTCGG
DNA 2: CCGAGCGCT
For the molecule B7, in data set [3] (5' overhang 1 nt on strand 1 as printed (meant blunt)), the Kd is 4.75 ± 0.8 µM.

B8: BtnT_15_Cy3_15 (internal Cy3 15 nt from free end) (dsDNA)
DNA 1: TTGCATCCTTCACAACGACCACCTAGATAG
DNA 2: CTATCTAGGTGGTCGTTGTGAAGGATGCAA
modifications: internal Cy3 after nt 15 of strand 1
With B8, in the data set with Ku70;Ku80 [6], the binding result is “binds”.

B9: Btn_25BamHI1_f/Cy3_25BamHI1_r (dsDNA)
DNA 1: CACAACGACCACCTAGATGGATCCA
DNA 2: TGGATCCATCTAGGTGGTCGTTGTG
Regarding B9, the binding result in data set [4] is reported as “binds”.

B10: Btn_15_f/Cy3_15_r (dsDNA)
DNA 1: ACCTAGATAGAGCCA
DNA 2: TGGCTCTATCTAGGT
As for B10, the Kd with Ku70;Ku80 [7] came out at 0.01 ± 0.005 µM. The binding signal with Ku70;Ku80 [5] (5' Cy3 strand 2) is roughly 50 % PIFE.

B11: HP (stem-loop) (structured_DNA)
DNA: CAGCGCTCGGTTTTTTTTTTTTTTTTTTTTCCGAGCGCTG
Take B11: the Kd in data set [3] (hairpin) came out at 0.64 ± 0.1 µM.

B12: Btn_14_f/Cy3_14_r (dsDNA)
DNA 1: CCTAGATAGAGCCA
DNA 2: TGGCTCTATCTAGG
For B12, the binding signal with Ku70;Ku80 [5] was roughly 50 % PIFE.

B13: Btn_11_f/Cy3_11_r (dsDNA)
DNA 1: AGATAGAGCCA
DNA 2: TGGCTCTATCT
Regarding B13, the binding signal with Ku70;Ku80 [5] was 7 % PIFE.

B14: Btn_12_f/Cy3_12_r (dsDNA)
DNA 1: TAGATAGAGCCA
DNA 2: TGGCTCTATCTA
B14: the binding signal in the data set with Ku70;Ku80 [5] worked out at 20 % PIFE.

B15: B-GC competitor (substitutions outside site) (dsDNA)
DNA 1: CACAACGCCGGATCCGGCCTAGAT
DNA 2: ATCTAGGCCGGATCCGGCGTTGTG
With B15, in data set [2], the binding result is “binds”.
